Reference: the RNAGym collection of RNA variant scans (doi:10.1073/pnas.2313332121)
This sample holds only a part of the variants without activity.

B1: TPR 5TU (parent)
chain: GGAUCUUCUCGAUCUAACAAAAAAGACAAAUCUGCCACAAAGCUUGAGAGCAUCUUCGGAUGCAGAGGCGGCAGCCUUCGGUGGCGCGAUAGCGCCAACGUUCUCAACUAUGACACGCAAAACGCGUGCUCCGUUGAAUGGAGUUUAUCAUG

Variants of: B1
Assay: polymerase ribozyme fitness, log enrichment relative to wild type (log ratio); higher = more active; in vitro selection for triplet polymerase activity
Method in brief: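 Both subunits of a heterodimeric triplet polymerase ribozyme were given their own mutant library, built by PCR and transcribed. Each library was annealed with a biotinylated primer, the partner subunit and triplets, incubated frozen at −7 °C, and its extended constructs gel-excised, captured on streptavidin beads and amplified by RT-PCR, all in one round done in triplicate. Fitness is the logarithm of genotype enrichment relative to wild-type enrichment, with replicates averaged by inverse-variance weighting. That logarithm is base 2, and Illumina-sequenced genotypes needed ≥10 input reads and ≥1 read per output.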

Which “polymerase ribozyme fitness (log ratio)” value does the source give for A20U C36A A41G U56A G65U A119G U127C here?
The value was at most -4.2.

For A20U G46C G62U C75G G92A G140C, which “polymerase ribozyme fitness (log ratio)” value is on record?
The value was at most -4.2.

For A20G A22C C93A, which “polymerase ribozyme fitness (log ratio)” value is on record?
The value was -3.38.

Which “polymerase ribozyme fitness (log ratio)” value does the source give for A20C C85A G126C U144A here?
The value was -0.594.

With A20C G83C C118G U130G as the variant, how does the “polymerase ribozyme fitness (log ratio)” value read?
The value was at most -4.2.

For A20U C35U G59C C75U C87U C99U A137U A138U, which “polymerase ribozyme fitness (log ratio)” value is on record?
The value was at most -4.2.

Which “polymerase ribozyme fitness (log ratio)” value does the source give for A19U U31G U144C here?
The value was -1.49.

For A20U C54G C87U A115G C149U, which “polymerase ribozyme fitness (log ratio)” value is on record?
The value was at most -4.2.

Which “polymerase ribozyme fitness (log ratio)” value does the source give for A20U G58A C96U U111G G124A U148A here?
The value was at most -4.2.

For A20C A24U C93U U130G A150G, which “polymerase ribozyme fitness (log ratio)” value is on record?
Its value is at most -4.2.

Which “polymerase ribozyme fitness (log ratio)” value does the source give for A20C U53A C54A G59A G84A G124C here?
The value was -2.39.

For A20U A37C A52G G124U, which “polymerase ribozyme fitness (log ratio)” value is on record?
The value was -2.09.

Which “polymerase ribozyme fitness (log ratio)” value does the source give for A20G C63A G74A C93A here?
The value was at most -4.2.

With A20U C57U A66U C95A U102C G141A U145G as the variant, how does the “polymerase ribozyme fitness (log ratio)” value read?
The value was at most -4.2.

With A20U A23U A64C A91G A107G as the variant, how does the “polymerase ribozyme fitness (log ratio)” value read?
Its value is at most -4.2.

For A20U A49G C85U A110G U148A, which “polymerase ribozyme fitness (log ratio)” value is on record?
Its value is at most -4.2.

For A20C U53A, which “polymerase ribozyme fitness (log ratio)” value is on record?
The value was -2.16.

Which “polymerase ribozyme fitness (log ratio)” value does the source give for A20U A22U C43A G84C C108G C116G here?
The value was at most -4.2.

Which “polymerase ribozyme fitness (log ratio)” value does the source give for A20G A37G A106G A138C here?
Its value is -3.84.

Which “polymerase ribozyme fitness (log ratio)” value does the source give for A20U A28U A39U G83A G141A here?
Its value is -4.1.

With A20G A142C as the variant, how does the “polymerase ribozyme fitness (log ratio)” value read?
Its value is -1.06.

Which “polymerase ribozyme fitness (log ratio)” value does the source give for A20C C63G G152A here?
The value was -2.4.

For A20G G81A C96U C114G U127G A142C, which “polymerase ribozyme fitness (log ratio)” value is on record?
Its value is at most -4.2.

For A20G U56G G117C, which “polymerase ribozyme fitness (log ratio)” value is on record?
Its value is -0.934.

For A20G G83A G88C C93G G100A C149U, which “polymerase ribozyme fitness (log ratio)” value is on record?
Its value is at most -4.2.

With A20C U101G C149U as the variant, how does the “polymerase ribozyme fitness (log ratio)” value read?
The value was -1.64.

For A20G A22U G59A C93G A98G A137G U139G, which “polymerase ribozyme fitness (log ratio)” value is on record?
Its value is at most -4.2.

Which “polymerase ribozyme fitness (log ratio)” value does the source give for A20C U56A A107U here?
The value was -2.71.

With A20C A60C C85A as the variant, how does the “polymerase ribozyme fitness (log ratio)” value read?
Its value is -2.66.

Which “polymerase ribozyme fitness (log ratio)” value does the source give for A20U A49G A66C A73U C79U A106U A107C here?
Its value is at most -4.2.

For A20U A52U A89C, which “polymerase ribozyme fitness (log ratio)” value is on record?
The value was -3.39.

With A20U C54A as the variant, how does the “polymerase ribozyme fitness (log ratio)” value read?
Its value is -2.02.

For A20U G71A C95A, which “polymerase ribozyme fitness (log ratio)” value is on record?
The value was at most -4.2.

Which “polymerase ribozyme fitness (log ratio)” value does the source give for A20U A24C C54U C63U G65U G84A C132G U148A here?
Its value is at most -4.2.

With A20U G42U U55G G62A as the variant, how does the “polymerase ribozyme fitness (log ratio)” value read?
The value was at most -4.2.

Which “polymerase ribozyme fitness (log ratio)” value does the source give for A20U G83A C96G C118U U134A U144A here?
Its value is -3.46.

Which “polymerase ribozyme fitness (log ratio)” value does the source give for A20C U56A C93A C116A here?
Its value is -1.28.

With A20G A52U C57A G62U C95A G133C A150U as the variant, how does the “polymerase ribozyme fitness (log ratio)” value read?
The value was -1.8.

For A20G G80A U82G C95U, which “polymerase ribozyme fitness (log ratio)” value is on record?
Its value is -1.15.

Which “polymerase ribozyme fitness (log ratio)” value does the source give for A20C A49G here?
Its value is -0.512.

Which “polymerase ribozyme fitness (log ratio)” value does the source give for A20U C57U G59U G62U C76U C96G A147G here?
Its value is at most -4.2.

For A20G G42C G84A C149A, which “polymerase ribozyme fitness (log ratio)” value is on record?
The value was at most -4.2.

With A19U U31C G46A C96U C131U U139G as the variant, how does the “polymerase ribozyme fitness (log ratio)” value read?
The value was -2.16.

Which “polymerase ribozyme fitness (log ratio)” value does the source give for A20U A21U here?
Its value is -0.727.

For A20U A30C A41G G74U C93U, which “polymerase ribozyme fitness (log ratio)” value is on record?
The value was at most -4.2.

For A20C U31G U53A U55G A115C, which “polymerase ribozyme fitness (log ratio)” value is on record?
Its value is -2.82.

For A20U A52U C76A C93A, which “polymerase ribozyme fitness (log ratio)” value is on record?
The value was at most -4.2.

For A20U A52C, which “polymerase ribozyme fitness (log ratio)” value is on record?
The value was -2.87.

Which “polymerase ribozyme fitness (log ratio)” value does the source give for A20U A40U U56A C96A G141C here?
Its value is -2.73.

With A19U U55A G59U as the variant, how does the “polymerase ribozyme fitness (log ratio)” value read?
The value was 0.528.

With A20C U130G U144C as the variant, how does the “polymerase ribozyme fitness (log ratio)” value read?
The value was -4.14.

For A20G C27U C35U A49U C76U C125U, which “polymerase ribozyme fitness (log ratio)” value is on record?
Its value is at most -4.2.

Which “polymerase ribozyme fitness (log ratio)” value does the source give for A19U G81A here?
The value was -0.839.

Which “polymerase ribozyme fitness (log ratio)” value does the source give for A20G A40U U77C here?
Its value is at most -4.2.

Which “polymerase ribozyme fitness (log ratio)” value does the source give for A19U G94A here?
The value was -1.

For A20U A29U U55A A66C A106U A138U, which “polymerase ribozyme fitness (log ratio)” value is on record?
The value was at most -4.2.

With A20U C96U A98G as the variant, how does the “polymerase ribozyme fitness (log ratio)” value read?
The value was -1.71.

For A20C C36A, which “polymerase ribozyme fitness (log ratio)” value is on record?
The value was -4.06.

Which “polymerase ribozyme fitness (log ratio)” value does the source give for A20C G136A here?
The value was -0.55.

For A20U A23C C79U G94C C95U U148A, which “polymerase ribozyme fitness (log ratio)” value is on record?
The value was at most -4.2.

Which “polymerase ribozyme fitness (log ratio)” value does the source give for A20G A22U C93G here?
Its value is -4.09.

With A20U G46A C76A C87G G94C C105G U144A as the variant, how does the “polymerase ribozyme fitness (log ratio)” value read?
Its value is at most -4.2.

Which “polymerase ribozyme fitness (log ratio)” value does the source give for A20C U53A U55A here?
Its value is -2.52.

Which “polymerase ribozyme fitness (log ratio)” value does the source give for A20C A30G G50U C95G A147G here?
The value was at most -4.2.

With A20G A39G G50C C85A C93A C114G C125G as the variant, how does the “polymerase ribozyme fitness (log ratio)” value read?
The value was at most -4.2.

Which “polymerase ribozyme fitness (log ratio)” value does the source give for A20G U31G G86A here?
Its value is -1.52.

With A20U A29G A91C C93A G128U as the variant, how does the “polymerase ribozyme fitness (log ratio)” value read?
Its value is at most -4.2.

With A20U C57A G84U as the variant, how does the “polymerase ribozyme fitness (log ratio)” value read?
Its value is -3.17.

With A20U G48A G84A G152C as the variant, how does the “polymerase ribozyme fitness (log ratio)” value read?
Its value is at most -4.2.

For A20C A24G, which “polymerase ribozyme fitness (log ratio)” value is on record?
The value was -4.02.

With A20U A41U G83U A89C C96G A150U as the variant, how does the “polymerase ribozyme fitness (log ratio)” value read?
The value was -2.06.

With A20C A47U C51U C105U U144A as the variant, how does the “polymerase ribozyme fitness (log ratio)” value read?
The value was -2.59.

For A20G C27G G65U G81A G88A A138C G143U, which “polymerase ribozyme fitness (log ratio)” value is on record?
Its value is at most -4.2.

For A20G C27A A47G G92A, which “polymerase ribozyme fitness (log ratio)” value is on record?
Its value is at most -4.2.

With A20U C72U C85A U134C A150C as the variant, how does the “polymerase ribozyme fitness (log ratio)” value read?
Its value is at most -4.2.

For A20C A24C C51A G74C G94U A121U U135G U148C, which “polymerase ribozyme fitness (log ratio)” value is on record?
The value was at most -4.2.

Which “polymerase ribozyme fitness (log ratio)” value does the source give for A20C C96U here?
The value was -1.24.

With A20C C57G C105G C149A as the variant, how does the “polymerase ribozyme fitness (log ratio)” value read?
Its value is at most -4.2.

Which “polymerase ribozyme fitness (log ratio)” value does the source give for A19U U61A G86U A107G A115U G152U here?
The value was at most -4.2.

Which “polymerase ribozyme fitness (log ratio)” value does the source give for A20G A22U G141A here?
The value was -1.8.

Which “polymerase ribozyme fitness (log ratio)” value does the source give for A20U A47C here?
Its value is -0.824.

With A20G U102G A107U C116U A142U as the variant, how does the “polymerase ribozyme fitness (log ratio)” value read?
The value was at most -4.2.

For A20U G62U G86A A107U G140A, which “polymerase ribozyme fitness (log ratio)” value is on record?
Its value is at most -4.2.
